Target: T1, His6-XPF (xeroderma pigmentosum complementation group F), wild type (human, UniProt Q92889 1-916)
T1 construct: XPF (ERCC4), human; Always co-expressed with ERCC1; also called ERCC4; XPF^WT; source: Sf9 (small-scale assays: Sf9 or Hi5), baculovirus co-expression with ERCC1; purified as complexes (Ni-NTA or Strep-Tactin, Capto HiRes Q, Superdex 200) or in insect cell lysate; not shown: His6, N-terminal, kept
Assay: co-purification (Strep-Tactin, ion exchange, SEC); co-infection of Sf9 with His6-XPF-ERCC1(-SLX4IP) and Twin-Strep-SLX4 fragment viruses; capture by the Twin-Strep tag on SLX4 on Strep-Tactin, 250 mM KCl, 40 mM HEPES-KOH pH 7.9, then Capto HiRes Q and Superdex 200; SDS-PAGE
Conditions: partners not purified

B1: Twin-Strep-SLX4^330-555 (domain or fragment, human, UniProt Q8IY92 330-555, looked up)
chain: VPQIPECPICGKPFLTLKSRTSHLKQCAVKMEVGPQLLLQAVRLQTAQPEGSSSPPMFSFSDHSRGLKRRGPTSKKEPRKRRKVDEAPSEDLLVAMALSRSEMEPGAAVPALRLESAFSERIRPEAENKSRKKKPPVSPPLLLVQDSETTGRQIEDRVALLLSEEVELSSTPPLPASRILKEGWERAGQCPPPPERKQSFLWEGSALTGAWAMEDFYTARLVPPLV
notes: from clone HsCD00821809 (DNASU) in vector 438-Sn; source: Sf9 (small-scale assays: Sf9 or Hi5), baculovirus co-infection with His6-XPF-ERCC1(-SLX4IP); purified as complexes (Strep-Tactin, Capto HiRes Q, Superdex 200) or in insect cell lysate; not shown: twin-Strep, N-terminal, kept
binding result: binds
